Source: patent publication US11136407 (AIMM THERAPEUTICS B V, dated 2021)
Bridges are numbered along the chain shown (N, C = ends). Primed or numbered codes have the meaning given here. Where no end group is shown, it is not given here. The star is where a group is joined. PEG2′ = PEG2 spacer group linking an N-terminal biotin to the peptide; Biotin = O=C1N[C@H]2[C@H](CS[C@H]2CCCCC(=O)*)N1

T1: mouse CD9 on platelets (mouse, UniProt P40240 1-226)
T1 construct: whole, on cells
T1 sequence (looked up): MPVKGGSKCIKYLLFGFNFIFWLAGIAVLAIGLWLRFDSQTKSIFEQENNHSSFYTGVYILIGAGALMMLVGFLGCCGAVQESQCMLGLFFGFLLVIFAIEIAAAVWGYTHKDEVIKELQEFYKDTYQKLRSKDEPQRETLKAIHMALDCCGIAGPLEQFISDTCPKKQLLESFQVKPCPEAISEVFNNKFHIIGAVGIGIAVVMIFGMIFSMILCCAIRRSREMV

T2: m4 circular peptide biotin-PEG(2)-CSPKKDVLETFTVKSSC (human, disulfide 1-17; not fully specified; printed as biotin-PEG(2)-CSPKKDVLETFTVKSSC)
T2 construct: synthetic peptide; also called circular constructed m4 peptide
T2 peptide: {Biotin-PEG2′}-CSPKKDVLETFTVKSSC

T3: surface CD81 (human, UniProt P60033)
T3 construct: also called CD81 on cells
T3 sequence (tetraspanin chain, looked up): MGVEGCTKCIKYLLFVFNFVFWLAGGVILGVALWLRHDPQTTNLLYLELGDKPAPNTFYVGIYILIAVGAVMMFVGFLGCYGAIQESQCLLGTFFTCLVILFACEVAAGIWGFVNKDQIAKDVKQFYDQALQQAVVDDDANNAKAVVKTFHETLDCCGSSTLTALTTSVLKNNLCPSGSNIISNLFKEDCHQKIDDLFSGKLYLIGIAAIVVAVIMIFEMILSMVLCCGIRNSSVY

T4: CD9-3×FLAG-rabbitFc-Sortase-biotin (human; rabbit, biotin attached at the C-terminus by Sortase A with a GGG-biotin nucleophile; the HIS tag is removed by that reaction)
T4 construct: also called CD9-EC2-3×FLAG-rabbitFc; recombinant CD9-EC2 protein; not shown: Fc region (CH2-CH3) of a rabbit IgG1 protein, amino acids 108-322, UniProt P01870
T4 chain (part 1 of 2): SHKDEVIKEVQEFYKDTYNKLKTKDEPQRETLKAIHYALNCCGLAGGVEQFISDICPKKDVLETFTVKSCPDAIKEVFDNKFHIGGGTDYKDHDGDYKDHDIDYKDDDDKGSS
T4 chain (part 2 of 2): GGGSLPETGGHHHHHH

T5: human CD9 (human, UniProt P21926 2-228)
T5 construct: Natural CD9 on tumor cell lines, primary cells and platelets, or in their lysates (Western blot, immunoprecipitation); also called MRP-1; MIC3
T5 sequence: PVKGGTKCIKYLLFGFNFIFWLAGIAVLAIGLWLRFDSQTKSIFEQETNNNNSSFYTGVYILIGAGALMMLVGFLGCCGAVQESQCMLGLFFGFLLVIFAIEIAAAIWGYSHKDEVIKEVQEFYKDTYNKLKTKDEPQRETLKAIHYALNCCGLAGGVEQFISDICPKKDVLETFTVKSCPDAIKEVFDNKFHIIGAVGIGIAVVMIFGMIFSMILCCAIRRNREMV


Legend:
mouse CD9 on platelets = target: T1, mouse CD9 on platelets; test: flow cytometry on NSG mouse blood, IgG-bio SA-PeCy7
[1] = target: T2, m4 circular peptide …; test: ELISA and SPR
surface CD81 = target: T3, surface CD81; test: flow cytometry, AT14-12 (IgG1) against AT10-02 (IgG1) on transduced HL-60 cells
[2] = target: T4, CD9-3×FLAG-rabbitFc-Sortase-biotin; test: SPR (IBIS), B cell supernatant on the CD9 spot; unit inferred
[3] = target: T4, CD9-3×FLAG-rabbitFc-Sortase-biotin; test: SPR on CD9-3xFLAG-rabbitFc-Sortase-biotin spots, CHO production supernatant; unit from the legend paragraph 219
[4] = target: T4, CD9-3×FLAG-rabbitFc-Sortase-biotin; test: SPR on CD9-3xFLAG-rabbitFc-Sortase-biotin spots, CHO production supernatant; unit and power of ten from the legend paragraph 219
human CD9 = target: T5, human CD9; test: flow cytometry on melanoma (MelWBO) cells, CHO supernatant
[5] = target: T4, CD9-3×FLAG-rabbitFc-Sortase-biotin; test: SPR on CD9 coated chip, CHO production supernatant

Binder	Kd [2]	Kd [3]	koff [4]	kon [4]	binding result (human CD9)	further results
antibody AT14-012 (antibody, V domains shown, also called AT1412; WT AT14-012) VH: EVQVVESGGGLVQPGRSLRLSCAASGFTFDDYAMHWVRQAPGKGLEWVSGISWNSGSIVYADSVKGRFTISRDNAKNSLYLQLNSLRAEDTAFYYCAKAVSGYYPYFDYWGQGILVTVSS VL: not shown						binding result (mouse CD9 on platelets): no binding; binding result [1]: no binding
AT14-012 recombinant antibody engineered as an IgG1 (antibody, V domains shown, Some experiments used Alexa647 or biotin labelled antibody, or a sortase-tagged (ST) heavy chain. None of this is carried in the letters., May be the same molecule as m1 if m1 stands for the IgG1 form; also called AT14-012 IgG1) VH: EVQVVESGGGLVQPGRSLRLSCAASGFTFDDYAMHWVRQAPGKGLEWVSGISWNSGSIVYADSVKGRFTISRDNAKNSLYLQLNSLRAEDTAFYYCAKAVSGYYPYFDYWGQGILVTVSS VL: not shown						binding result (surface CD81): no binding
2H15 B cell subclone 10D1 (antibody, V domains shown, group 1; B cell supernatant) VH: EVQVVESGGGLVQPGRSLRLSCAASGFTFDDYAMYWVRQAPGKGLEWVSGISWNSGSIVYADSVKGRFTISRDNAKNSLYLQLNSLRAEDTAFYYCAKAVSGYYPYFDYWGQGILVTVSS VL: not shown	3.9 nM					
2H15 B cell subclone 2D12 (antibody, V domains shown, group 2; B cell supernatant) VH: EVQVVESGGGLVQPGRSLRLSCAASGFTFDDYAMHWVRQAPGKGLEWVSGISWNSGSIVYADSVKGRFTISRDNAKNSLYLQLNSLRAEDTAFYYCAKAVSGYYPYFHYWGQGILVTVSS VL: not shown	5.2 nM					
AT14-012 single mutant T29N (antibody, V domains shown) VH: EVQVVESGGGLVQPGRSLRLSCAASGFNFDDYAMHWVRQAPGKGLEWVSGISWNSGSIVYADSVKGRFTISRDNAKNSLYLQLNSLRAEDTAFYYCAKAVSGYYPYFDYWGQGILVTVSS VL: not shown		50.1 nM	0.00126 s⁻¹	25900 M⁻¹ s⁻¹	binds	
2H15 B cell subclone 1F5 (antibody, V domains shown, group 1; B cell supernatant) VH: EVQVVESGGGLVQPGRSLRLSCAASGFTFDDYAMHWVRQAPGKGLEWVSGISWNSGSIVYADSVKGRFTISRDNAKNSLYLQLNSLRAEDTAFYYCAKAVSGYFPYFDYWGQGILVTVSS VL: not shown	3.8 nM					
AT14-012 single mutant H40Y (antibody, V domains shown) VH: EVQVVESGGGLVQPGRSLRLSCAASGFTFDDYAMYWVRQAPGKGLEWVSGISWNSGSIVYADSVKGRFTISRDNAKNSLYLQLNSLRAEDTAFYYCAKAVSGYYPYFDYWGQGILVTVSS VL: not shown		0.543 nM	0.000202 s⁻¹	372000 M⁻¹ s⁻¹	binds	fold enhancement of affinity against WT AT14-012 [5]: 100 times
AT14-012 double mutant H40Y/Y112F (antibody, V domains shown, also called double group 1 mutant; combination group 1 mutant) VH: EVQVVESGGGLVQPGRSLRLSCAASGFTFDDYAMYWVRQAPGKGLEWVSGISWNSGSIVYADSVKGRFTISRDNAKNSLYLQLNSLRAEDTAFYYCAKAVSGYFPYFDYWGQGILVTVSS VL: not shown		0.219 nM	3.69e-05 s⁻¹	164000 M⁻¹ s⁻¹	binds	Kd [5]: ~0.22 nM; fold enhancement of affinity against WT AT14-012 [5]: 250 times
2H15 B cell subclone 1D5 (antibody, V domains shown, group 1; B cell supernatant) VH: EVQVVESGGGLVQPGRSLRLSCAASGFTFDDYAMYWVRQAPGKGLEWVSGISWNSGSIVYADSVKGRFTISRDNAKNSLYLQLNSLRAEDTAFYYCAKAVSGYYPYFDYWGQGILVTVSS VL: not shown	2.3 nM					
2H15 B cell subclone 4D4 (antibody, IgG3, V domains shown, group 2; B cell supernatant, IgG3) VH: EVQVVESGGGLVQPGRSLRLSCAASGFTFDDYAMHWVRQAPGKGLEWVSGISWNSGSIVYADSVKGRFTISRDNAKNSLYLQLNSLRAEDTAFYYCAKAVSGYYPYFDYWGQGILVTVSS VL: DIVMTQSPDSLSVSLGERATINCKSSQSVLYSSNNKNYLGWYQQKPGQPPKLLIYWASIRESGVPDRFSGSGSGTDFTLTISSPQAEDVAVYYCQQYYTTPSTFGQGTRLEIK	15.9 nM					
2H15 B cell subclone 4H10 (antibody, V domains shown, group 1; B cell supernatant) VH: EVQVVESGGGLVQPGRSLRLSCAASGFTFDDYAMYWVRQAPGKGLEWVSGISWNSGSIVYADSVKGRFTISRDNAKNSLYLQLNSLRAEDTAFYYCAKAVSGYYPYFDYWGQGILVTVSS VL: not shown	6.1 nM					
AT14-012 single mutant D116H (antibody, V domains shown) VH: EVQVVESGGGLVQPGRSLRLSCAASGFTFDDYAMHWVRQAPGKGLEWVSGISWNSGSIVYADSVKGRFTISRDNAKNSLYLQLNSLRAEDTAFYYCAKAVSGYYPYFHYWGQGILVTVSS VL: not shown		4.62 nM	0.00217 s⁻¹	470000 M⁻¹ s⁻¹	binds	fold enhancement of affinity against WT AT14-012 [5]: 10 times
AT14-012 double mutant D116H/T29N (antibody, V domains shown, also called combination of the two group 2 mutations) VH: EVQVVESGGGLVQPGRSLRLSCAASGFNFDDYAMHWVRQAPGKGLEWVSGISWNSGSIVYADSVKGRFTISRDNAKNSLYLQLNSLRAEDTAFYYCAKAVSGYYPYFHYWGQGILVTVSS VL: not shown		4.19 nM	0.00297 s⁻¹	708000 M⁻¹ s⁻¹	binds	
AT14-012 single mutant Y112F (antibody, V domains shown) VH: EVQVVESGGGLVQPGRSLRLSCAASGFTFDDYAMHWVRQAPGKGLEWVSGISWNSGSIVYADSVKGRFTISRDNAKNSLYLQLNSLRAEDTAFYYCAKAVSGYFPYFDYWGQGILVTVSS VL: not shown		1.09 nM	0.000203 s⁻¹	185000 M⁻¹ s⁻¹	binds	fold enhancement of affinity against WT AT14-012 [5]: 50 times
AT14-012 quadruple mutant H40Y/Y112F/D116H/T29N (antibody, V domains shown, also called quadruple variant) VH: EVQVVESGGGLVQPGRSLRLSCAASGFNFDDYAMYWVRQAPGKGLEWVSGISWNSGSIVYADSVKGRFTISRDNAKNSLYLQLNSLRAEDTAFYYCAKAVSGYFPYFHYWGQGILVTVSS VL: not shown		0.455 nM	6.92e-05 s⁻¹	153000 M⁻¹ s⁻¹	binds	Kd [5]: ~0.455 nM; fold lower affinity against the group 1 double mutant (H40Y/Y112F) [5]: 2 times
